B1: Cyclin-dependent kinase 4 (Homo sapiens), P11802 (parent)
chain: MATSRYEPVAEIGVGAYGTVYKARDPHSGHFVALKSVRVPNGGGGGGGLPISTVREVALLRRLEAFEHPNVVRLMDVCATSRTDREIKVTLVFEHVDQDLRTYLDKAPPPGLPAETIKDLMRQFLRGLDFLHANCIVHRDLKPENILVTSGGTVKLADFGLARIYSYQMALTPVVVTLWYRAPEVLLQSTYATPVDMWSVGCIFAEMFRRKPLFCGNSEADQLGKIFDLIGLPPEDDWPRDVSLPRGAFPPRGPRPVQSVVPEMEESGAQLLLEMLTFNPHKRISAFRALQHSYLHKDEGNPE
partner: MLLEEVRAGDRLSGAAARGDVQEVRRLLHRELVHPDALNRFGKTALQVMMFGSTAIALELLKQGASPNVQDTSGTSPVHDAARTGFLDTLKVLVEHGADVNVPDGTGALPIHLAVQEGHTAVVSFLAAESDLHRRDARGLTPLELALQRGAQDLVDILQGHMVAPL
B2: 60 kDa heat shock protein, mitochondrial (Homo sapiens), P10809 (parent)
chain: MLRLPTVFRQMRPVSRVLAPHLTRAYAKDVKFGADARALMLQGVDLLADAVAVTMGPKGRTVIIEQSWGSPKVTKDGVTVAKSIDLKDKYKNIGAKLVQDVANNTNEEAGDGTTTATVLARSIAKEGFEKISKGANPVEIRRGVMLAVDAVIAELKKQSKPVTTPEEIAQVATISANGDKEIGNIISDAMKKVGRKGVITVKDGKTLNDELEIIEGMKFDRGYISPYFINTSKGQKCEFQDAYVLLSEKKISSIQSIVPALEIANAHRKPLVIIAEDVDGEALSTLVLNRLKVGLQVVAVKAPGFGDNRKNQLKDMAIATGGAVFGEEGLTLNLEDVQPHDLGKVGEVIVTKDDAMLLKGKGDKAQIEKRIQEIIEQLDVTTSEYEKEKLNERLAKLSDGVAVLKVGGTSDVEVNEKKDRVTDALNATRAAVEEGIVLGGGCALLRCIPALDSLTPANEDQKIGIEIIKRTLKIPAMTIAKNAGVEGSLIVEKIMQSSSEVGYDAMAGDFVNMVEKGIIDPTKVVRTALLDAAGVASLLTTAEVVVTEIPKEEKDPGMGAMGGMGGGMGGGMF
B3: Estrogen receptor beta (Homo sapiens), Q92731-3 (parent)
chain: MDIKNSPSSLNSPSSYNCSQSILPLEHGSIYIPSSYVDSHHEYPAMTFYSPAVMNYSIPSNVTNLEGGPGRQTTSPNVLWPTPGHLSPLVVHRQLSHLYAEPQKSPWCEARSLEHTLPVNRETLKRKVSGNRCASPVTGPGSKRDAHFCAVCSDYASGYHYGVWSCEGCKAFFKRSIQGHNDYICPATNQCTIDKNRRKSCQACRLRKCYEVGMVKCGSRRERCGYRLVRRQRSADEQLHCAGKAKRSGGHAPRVRELLLDALSPEQLVLTLLEAEPPHVLISRPSAPFTEASMMMSLTKLADKELVHMISWAKKIPGMRGNA
B4: Arylsulfatase A (Homo sapiens), P15289 (parent)
chain: MGAPRSLLLALAAGLAVARPPNIVLIFADDLGYGDLGCYGHPSSTTPNLDQLAAGGLRFTDFYVPVSLCTPSRAALLTGRLPVRMGMYPGVLVPSSRGGLPLEEVTVAEVLAARGYLTGMAGKWHLGVGPEGAFLPPHQGFHRFLGIPYSHDQGPCQNLTCFPPATPCDGGCDQGLVPIPLLANLSVEAQPPWLPGLEARYMAFAHDLMADAQRQDRPFFLYYASHHTHYPQFSGQSFAERSGRGPFGDSLMELDAAVGTLMTAIGDLGLLEETLVIFTADNGPETMRMSRGGCSGLLRCGKGTTYEGGVREPALAFWPGHIAPGVTHELASSLDLLPTLAALAGAPLPNVTLDGFDLSPLLLGTGKSPRQSLFFYPSYPDEVRGVFAVRTGKYKAHFFTQGSAHSDTTADPACHASSSLTAHEPPLLYDLSKDPGENYNLLGGVAGATPEVLQALKQLQLLKAQLDAAVTFGPSQVARGEDPALQICCHPGCTPRPACCHCPDPHA
partner: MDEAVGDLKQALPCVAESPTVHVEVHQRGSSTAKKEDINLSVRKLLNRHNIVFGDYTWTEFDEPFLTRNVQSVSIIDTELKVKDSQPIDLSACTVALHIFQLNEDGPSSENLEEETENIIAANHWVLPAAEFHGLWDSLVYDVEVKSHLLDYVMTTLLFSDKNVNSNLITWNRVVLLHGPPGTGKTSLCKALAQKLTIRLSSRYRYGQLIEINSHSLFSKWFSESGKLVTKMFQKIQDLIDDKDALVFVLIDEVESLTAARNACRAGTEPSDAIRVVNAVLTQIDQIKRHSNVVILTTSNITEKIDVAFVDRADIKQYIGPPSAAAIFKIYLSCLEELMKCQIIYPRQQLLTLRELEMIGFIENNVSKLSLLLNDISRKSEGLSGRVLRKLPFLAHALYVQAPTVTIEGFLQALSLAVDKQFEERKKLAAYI
B5: Tumor necrosis factor receptor superfamily member 13B (Homo sapiens), O14836-2 (parent)
chain: MSGLGRSRRGGRSRVDQEERWSLSCRKEQGKFYDHLLRDCISCASICGQHPKQCAYFCENKLRSPVNLPPELRRQRSGEVENNSDNSGRYQGLEHRGSEASPALPGLKLSADQVALVYSTLGLCLCAVLCCFLVAVACFLKKRGDPCSCQPRSRPRQSPAKSSQDHAMEAGSPVSTSPEPVETCSFCFPECRAPTQESAVTPGTPDPTCAGRWGCHTRTTVLQPCPHIPDSGLGIVCVPAQEGGPGA
B6: Apolipoprotein D (Homo sapiens), P05090 (parent)
chain: MVMLLLLLSALAGLFGAAEGQAFHLGKCPNPPVQENFDVNKYLGRWYEIEKIPTTFENGRCIQANYSLMENGKIKVLNQELRADGTVNQIEGEATPVNLTEPAKLEVKFSWFMPSAPYWILATDYENYALVYSCTCIIQLFHVDFAWILARNPNLPPETVDSLKNILTSNNIDVKKMTVTDQVNCPKLS
partner: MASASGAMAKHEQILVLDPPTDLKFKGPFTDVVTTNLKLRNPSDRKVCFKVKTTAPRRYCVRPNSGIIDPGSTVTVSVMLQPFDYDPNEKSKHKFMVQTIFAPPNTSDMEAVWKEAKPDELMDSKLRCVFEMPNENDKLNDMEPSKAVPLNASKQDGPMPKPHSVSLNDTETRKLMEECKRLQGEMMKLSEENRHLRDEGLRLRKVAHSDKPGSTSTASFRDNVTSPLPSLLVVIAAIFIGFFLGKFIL
B7: Alpha-sarcoglycan (Homo sapiens), Q16586 (parent)
chain: MAETLFWTPLLVVLLAGLGDTEAQQTTLHPLVGRVFVHTLDHETFLSLPEHVAVPPAVHITYHAHLQGHPDLPRWLRYTQRSPHHPGFLYGSATPEDRGLQVIEVTAYNRDSFDTTRQRLVLEIGDPEGPLLPYQAEFLVRSHDAEEVLPSTPASRFLSALGGLWEPGELQLLNVTSALDRGGRVPLPIEGRKEGVYIKVGSASPFSTCLKMVASPDSHARCAQGQPPLLSCYDTLAPHFRVDWCNVTLVDKSVPEPADEVPTPGDGILEHDPFFCPPTEAPDRDFLVDALVTLLVPLLVALLLTLLLAYVMCCRREGRLKRDLATSDIQMVHHCTIHGNTEELRQMAASREVPRPLSTLPMFNVHTGERLPPRVDSAQVPLILDQH
B8: Hepatocyte nuclear factor 4-alpha (Homo sapiens), P41235-3 (parent)
chain: MRLSKTLVDMDMADYSAALDPAYTTLEFENVQVLTMGNDTSPSEGTNLNAPNSLGVSALCAICGDRATGKHYGASSCDGCKGFFRRSVRKNHMYSCRFSRQCVVDKDKRNQCRYCRLKKCFRAGMKKEAVQNERDRISTRRSSYEDSSLPSINALLQAEVLSRQITSPVSGINGDIRAKKIASIADVCESMKEQLLVLVEWAKYIPAFCELPLDDQVALLRAHAGEHLLLGATKRSMVFKDVLLLGNDYIVPRHCPELAEMSRVSIRILDELVLPFQELQIDDNEYAYLKAIIFFDPDAKGLSDPGKIKRLRSQVQVSLEDYINDRQYDSRGRFGELLLLLPTLQSITWQMIEQIQFIKLFGMAKIDNLLQEMLLGGPCQAQEGRGWSGDSPGDRPHTVSSPLSSLASPLCRFGQVA
B9: Cyclin-dependent kinase 4 inhibitor C (Homo sapiens), P42773 (parent)
chain: MAEPWGNELASAAARGDLEQLTSLLQNNVNVNAQNGFGRTALQVMKLGNPEIARRLLLRGANPDLKDRTGFAVIHDAARAGFLDTLQTLLEFQADVNIEDNEGNLPLHLAAKEGHLRVVEFLVKHTASNVGHRNHKGDTACDLARLYGRNEVVSLMQANGAGGATNLQ
partner: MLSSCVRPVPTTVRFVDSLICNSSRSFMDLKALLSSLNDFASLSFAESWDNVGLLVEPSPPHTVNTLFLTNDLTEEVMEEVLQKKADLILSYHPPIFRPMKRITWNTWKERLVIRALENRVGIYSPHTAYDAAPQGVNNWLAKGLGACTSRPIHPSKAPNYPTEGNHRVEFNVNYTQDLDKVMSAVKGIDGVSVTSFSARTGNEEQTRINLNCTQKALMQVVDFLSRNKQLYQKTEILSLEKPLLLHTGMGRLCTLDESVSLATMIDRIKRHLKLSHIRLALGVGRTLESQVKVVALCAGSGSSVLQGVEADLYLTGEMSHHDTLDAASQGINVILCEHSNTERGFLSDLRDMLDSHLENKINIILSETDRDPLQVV

Variants of: B1
Details: with cdn2d_human CDKN2D

| Variant | effect of a mutation on the interaction |
| --- | --- |
| R24C | with no effect |
| S52N | with no effect |
| N41S | with no effect |

Variants of: B2
Details: with lzts2_human LZTS2, Q9BRK4
Chain of lzts2_human LZTS2, Q9BRK4 (Q9BRK4 whole entry): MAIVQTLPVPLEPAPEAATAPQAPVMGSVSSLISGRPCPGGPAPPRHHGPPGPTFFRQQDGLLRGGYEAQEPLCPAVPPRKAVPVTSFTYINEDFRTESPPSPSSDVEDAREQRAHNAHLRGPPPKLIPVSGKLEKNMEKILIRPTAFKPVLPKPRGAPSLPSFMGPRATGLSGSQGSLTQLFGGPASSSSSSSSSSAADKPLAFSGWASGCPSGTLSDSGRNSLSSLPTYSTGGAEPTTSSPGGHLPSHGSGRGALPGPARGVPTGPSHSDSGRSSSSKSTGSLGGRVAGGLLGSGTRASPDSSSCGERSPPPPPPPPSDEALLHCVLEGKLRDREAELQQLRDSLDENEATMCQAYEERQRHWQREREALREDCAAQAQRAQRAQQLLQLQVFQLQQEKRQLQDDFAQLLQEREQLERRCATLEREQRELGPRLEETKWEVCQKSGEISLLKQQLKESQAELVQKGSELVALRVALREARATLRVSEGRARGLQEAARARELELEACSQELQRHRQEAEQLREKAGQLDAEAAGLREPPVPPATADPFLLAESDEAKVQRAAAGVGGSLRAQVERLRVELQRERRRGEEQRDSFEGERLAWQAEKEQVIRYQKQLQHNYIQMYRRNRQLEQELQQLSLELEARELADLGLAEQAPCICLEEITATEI

| Variant | effect of a mutation on the interaction |
| --- | --- |
| Q461E | with no effect |
| V98I | with no effect |
| D29G | disrupting interaction strength |

Variants of: B3
Details: with tfcp2_human TFCP2, Q12800
Chain of tfcp2_human TFCP2, Q12800 (Q12800 whole entry): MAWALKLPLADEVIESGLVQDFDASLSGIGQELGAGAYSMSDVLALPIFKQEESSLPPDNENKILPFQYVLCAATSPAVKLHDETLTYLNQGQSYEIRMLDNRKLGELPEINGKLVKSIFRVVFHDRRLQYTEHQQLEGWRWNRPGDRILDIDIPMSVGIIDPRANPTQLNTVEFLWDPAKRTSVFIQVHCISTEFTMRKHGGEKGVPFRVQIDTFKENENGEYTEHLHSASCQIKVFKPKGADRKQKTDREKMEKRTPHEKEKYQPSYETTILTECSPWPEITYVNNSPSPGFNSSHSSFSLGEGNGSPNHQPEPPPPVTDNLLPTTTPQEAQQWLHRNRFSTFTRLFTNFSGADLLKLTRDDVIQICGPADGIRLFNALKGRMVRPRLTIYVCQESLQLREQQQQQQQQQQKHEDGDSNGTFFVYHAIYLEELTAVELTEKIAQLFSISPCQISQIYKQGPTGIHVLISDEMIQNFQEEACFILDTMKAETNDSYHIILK

| Variant | effect of a mutation on the interaction |
| --- | --- |
| F289L | causing an interaction |

Variants of: B3
Details: with mdfi_human MDFI

| Variant | effect of a mutation on the interaction |
| --- | --- |
| F289L | causing an interaction |

Variants of: B4
Details: with pch2_human TRIP13, Q15645

| Variant | effect of a mutation on the interaction |
| --- | --- |
| N350S | with no effect |
| Y201C | with no effect |

Variants of: B5
Details: with sgta_human SGTA
Target sequence in this assay (O43765 whole entry): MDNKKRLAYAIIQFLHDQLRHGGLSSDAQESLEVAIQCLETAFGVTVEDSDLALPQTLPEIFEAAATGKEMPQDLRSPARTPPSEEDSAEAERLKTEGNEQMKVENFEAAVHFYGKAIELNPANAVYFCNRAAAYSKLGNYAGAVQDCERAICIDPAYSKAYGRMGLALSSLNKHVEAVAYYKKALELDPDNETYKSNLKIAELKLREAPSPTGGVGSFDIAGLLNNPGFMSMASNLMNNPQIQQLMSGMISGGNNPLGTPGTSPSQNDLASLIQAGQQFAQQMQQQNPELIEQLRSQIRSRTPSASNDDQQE

| effect of a mutation on the interaction | Variant |
| --- | --- |
| with no effect | P205L |
| with no effect | C58R |

The remaining lines, values behind:

| Variant | effect of a mutation on the interaction |
| --- | --- |
| K142M | with no effect |
| V174A | with no effect |
| V200F | with no effect |
| L125R | disrupting interaction strength |
| A103T | with no effect |

Variants of: B6
Details: with vapa_human VAPA

| Variant | effect of a mutation on the interaction |
| --- | --- |
| F56V | with no effect |

Variants of: B7
Details: with sgta_human SGTA
Target sequence in this assay (O43765 whole entry): as above

| Variant | effect of a mutation on the interaction |
| --- | --- |
| T208I | with no effect |
| M312R | with no effect |
| R98H | with no effect |

Variants of: B8
Details: with plpp2_human PLPP2, O43688
Chain of plpp2_human PLPP2, O43688 (O43688 whole entry, looked up): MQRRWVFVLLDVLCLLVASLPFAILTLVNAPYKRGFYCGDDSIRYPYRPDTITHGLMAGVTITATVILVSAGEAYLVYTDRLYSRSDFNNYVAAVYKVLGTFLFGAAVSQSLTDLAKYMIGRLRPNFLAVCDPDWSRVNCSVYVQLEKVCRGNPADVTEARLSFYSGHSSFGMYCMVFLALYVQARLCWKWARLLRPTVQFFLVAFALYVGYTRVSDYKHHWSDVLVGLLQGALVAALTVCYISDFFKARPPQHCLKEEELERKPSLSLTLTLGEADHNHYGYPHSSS

| Variant | effect of a mutation on the interaction |
| --- | --- |
| C102W | disrupting interaction strength |

Variants of: B8
Details: with if1ay_human EIF1AY

| Variant | effect of a mutation on the interaction |
| --- | --- |
| C102W | disrupting interaction strength |

Variants of: B8
Details: with dmd_human DMD

| Variant | effect of a mutation on the interaction |
| --- | --- |
| C102W | disrupting interaction strength |

Variants of: B9
Details: with nif3l_human NIF3L1, Q9GZT8

| Variant | effect of a mutation on the interaction |
| --- | --- |
| V31L | disrupting interaction strength |
